Fewer inactive variants are shown than the library holds.
B1: TPR 5TU (parent)
chain: GGAUCUUCUCGAUCUAACAAAAAAGACAAAUCUGCCACAAAGCUUGAGAGCAUCUUCGGAUGCAGAGGCGGCAGCCUUCGGUGGCGCGAUAGCGCCAACGUUCUCAACUAUGACACGCAAAACGCGUGCUCCGUUGAAUGGAGUUUAUCAUG

Variants of: B1
Experiment: polymerase ribozyme fitness, log enrichment relative to wild type (log ratio); higher = more active; in vitro selection for triplet polymerase activity
Method in brief: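 One round of in vitro selection, in triplicate, was applied to PCR-built, transcribed mutant libraries of each subunit of a heterodimeric triplet polymerase ribozyme. The steps were annealing with a biotinylated primer, partner subunit and triplets, incubation frozen at −7 °C, gel excision of extended constructs, streptavidin-bead capture and RT-PCR. Fitness is the logarithm, base 2, of genotype enrichment over wild-type enrichment from inverse-variance-weighted replicate averages of Illumina-sequenced inputs and outputs, keeping genotypes with ≥10 input reads and ≥1 read per output.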

Compared with GGAUAUUCUCGAUCUAACAAAAAAGACAAAUCUGCCACAAAGCUUGAGAGCAUCUUCGGAUGCAGAGGCGGCAGCCUUCGGUGGCGCGAUAACGCCAACGUUCGCAACUAUGACACGCAUAAAGCGUGCGCCGUUGAAUGGAGUUUAUCAUG [C5A G92A U104G A120U C123A U130G], GGAUAUUCUCGAUCUAACAAAAAAGACAAAUCUGCCACAAACCUUGAGAGCAUCUUCGGAUGCAGAGGCGGCAGCCUUCGGUGGCGCGAUAGCGCCAACGUUCUCAACUAUGACACGCAAAACGCGUGCUCCGUUGAAUGGAGUUUAUCAUG [C5A G42C] is higher in “polymerase ribozyme fitness (log ratio)” value: ≤ -4.2 for the first, -4.02 for the second.

First: GGAUAUUCUCGAUCUAACAAAAAAGACAAAUCUGCCACAAAGCUUGAGAGCAUCUUCGGAUGCAGAGGCGGCAGCCUUCGGUGGCGUGAUAGCGCCAACGUUCUCAACUAUGACACGCAAAACGCGUGCUCCGUUGAAUGGAGUUUAUCAUG [C5A C87U]
Second: GGAUAAUCUCGAUCUAACAAAAAAGACAAAUCUGCCACAAAGCUUGAGAGCAUCUUCGGAUGCAGAGGCGGCAGCCUUCGGUGGCGCGAUAGCUCCAACGUUCUCAACUAUGACACGCAAAAUGCGUGCUCCGUUGAAUGGAGUUUAGCAUG [C5A U6A G94U C123U U148G]
The “polymerase ribozyme fitness (log ratio)” value of the first is higher: -0.502 for the first, ≤ -4.2 for the second.

Going from GGAUAUUCUCGAUCUAACAAAAAAGACAAAUCUGCCACAAAGCUUGAGAGCAUCUUCGGAUGCAGAGGCGGCAGCCUUCGUUGGGGCGAUAGCGCCAAUGUUCUCAACUAUGACACGCAAAACGCGUGCUCCGAUGAAUGGAGUUUAUCAUG [C5A G81U C85G C99U U134A] to GGAUAUUCUCGAUCUAACAAAAAAGACAAAUCUGCCACAAAGCUUGAGAGCAUCUUGGGAUGCAGAGGCGGUUGCCUUCCGUGGCGCGAUAGGGCCAACGUUCUCAACUUUGACACGCAAAACGCGUGCUCCGUUGAAUGGAGUUUAUCAUG [C5A C57G C72U A73U G80C C93G A110U], the “polymerase ribozyme fitness (log ratio)” value falls from -4.04 to ≤ -4.2.

Going from GGAUAUUCUCGAUCUAACAAAAAAGACAAAUCUGCCACAAAGCUUGAGAGCAUCUUCGGAUGCAGAGGCGGCAGCCUUCGGUGGCGUGAUAGCGCCAACGUUCUCAACUAUGACACGCAAAACGCGUGAUCCGUUGAAUGGAGUUUAUCAUG [C5A C87U C129A] to GGAUAUUCUCGAUCUAACAAAAAAGACAAAUCUGCCACAAAGCUUGAGAGCAUCUUCGGAUGCAGAGGCGGCAGCCUUCGGUGGCGCGAUAGCGCUAACGUUCUCAACUAUGACACGCAAAACGCGUGCUCCGUUGAAUGGAGUUUAUCAUG [C5A C96U], the “polymerase ribozyme fitness (log ratio)” value rises from -3.51 to 0.321.

Compared with GGAUAUUCUCGAUCUAACAAAAAAGACAAAUCUGCCACAAAGCUUGAGAGCAUCUUCGGAUGCAGAGGCGGCAGCCUUCGGUGGCGCGAUAGCGCCAACGUUCUCAACUAUGACACGCAAAACGCGUGCUCCGUUAAAUGGAGUUUAUCAUG [C5A G136A], GGAUAUUCUCGAUCUAACAAAAAAGACAAAUCUGCCACAAAGCUUGAGAGCAUUUUCGGAUGCAGAGGCGGCAGCCUUCGGUGGCGUGAUAGCGCCAACGUUCUCAACUAUGACACGCAAAACGCGUGCUCCGUUGAAUGGAGUUUACCAUG [C5A C54U C87U U148C] is lower in “polymerase ribozyme fitness (log ratio)” value: 0.816 for the first, -2.76 for the second.

First: GGAUAUUCUCGAUCUAACAAAAAAGACAAAUCUGCCACAAAGCUUGAGAGCAUCUUCGGAUGCAGAGGCGGCAGCAUUCGGUGGGGCGAUAGCGCCAACGUUCUCAACUAUGACACGCAAAACGCGUGCUCCCUUGAAUGGAGUUUAUCAUG [C5A C76A C85G G133C]
Second: GGAUAUUCUCGAUCUAACAAAAAAGACAAAUCUGCCAUAAAGCUUGAGAACAUCUUCGGGUGCAGAGGCGGCAGCCUUCGGUGGCGCGAUAGCGACAACGUUUUCAACUAUGACACGCAAAACGCUUGCUCCGUUGAAUGGAGUUUAUCAUG [C5A C38U G50A A60G C95A C103U G126U]
The “polymerase ribozyme fitness (log ratio)” value of the first is higher: -2.61 for the first, -3.13 for the second.

First: GGAUAUUCUCGAUCUAACAAAAAAGACAAAUCUGCCACAAAGCUUGAGAGCAUCUUCGGAUGCAGAGGAGGCAGCCUUCGGUGACGCGAUAGCGCCAACGUUCGCAACUAUGACACGCAAAACGUAUGCUCCGUUGAAUGGCGUUUAUCAUG [C5A C69A G84A U104G C125U G126A A142C]
Second: GGAUAUUCUCGAUCUAACAAAAAAGACAAAUCUGCCACAAAGCUUGAGAGCAUCUUCGGAUGCAGAGGCGGCAGCCUUCGGUGGGGCGAUAGCGCCAACGUUCUUAACUAUGACACGCAAAACGCGUGCUCCGUUGAAUGGAGUUUAUCAUG [C5A C85G C105U]
The “polymerase ribozyme fitness (log ratio)” value of the first is lower: ≤ -4.2 for the first, -1.21 for the second.

GGAUAUUCUCGAUCUAACAAAAAAGACAAAUCUGCCACAAAGCUUGAGAGCAUCUUCGGAUGCAGAGGCGGCAGCCUUAGGUGGCGCAAUAGCGCCAACGUUCUCCACUAUGACACGCAAAACGCGUGCUCCGUUGAAUGGAGUUUAUCAUG [C5A C79A G88A A106C] and GGAUAUUCUCGAUCUAACAAAAAAGAUAAAUCUGCCACAAAGCUUGAGAGCAUCUUCGGAUGCAGAGGCGGCAGACUUCGGUGGCGCGAUAGCGCCAACGUUCUCAACUAUGACACGCAAAACGCGUGCUCCGUUGAAUGGGGUUGAUCAUG [C5A C27U C75A A142G U146G] cannot be ordered by “polymerase ribozyme fitness (log ratio)” value: ≤ -4.2 for the first, ≤ -4.2 for the second.

Compared with GGAUAUUCUCGAUCUAACAAAAAAGACAAAUCUGCCACAAAGCUUGAGAGCAUCUUCGGAUGCAGAGGCGGCAGCCUUCGGUGGUGCGAUAGUGCCAACGUUCUCAACUAUGACACGCAAAACGCGUGCUCCGUUGAAUGGAGUUUAUCAUG [C5A C85U C93U], GGAUAUUCUCGAUCUAACAAAAAAGACAAAUCUGCCACAAAGCUUGAGAGCAUCUUCGGAUGCAGAGGGGGCAGCCUUCGGUGACGCGAUAGCGCCAACGUUCUCAAUUAUGACACGCAAAACGCGUGCUCCGUUGAAUGGAGUUUAUCAUG [C5A C69G G84A C108U] is lower in “polymerase ribozyme fitness (log ratio)” value: -1.66 for the first, -3.39 for the second.

With GGAUAUUCUCGAUCUAACAAAAAAGACAAAUCUGCCACAAAGCUUGAGAGCAUCUUCGGAUGCAGAGGCGGCAGCUUUCGGUGGCGCGAUAGCGCCAACGUUCUCAACUAUGACACGCAAAACGCGUGCUCCGUUGAAUGGAGUUUAUCAUG [C5A C76U] the “polymerase ribozyme fitness (log ratio)” value was -0.144.
